In patent US20190002588A1 (NATIONAL UNIVERSITY CORPORATION CHIBA UNIVERSITY, published 2019):

T1: glutathione-S-transferase (GST)-His-mouse Myl9 (mouse, UniProt Q9CQ19 2-172)
T1 construct: The order of the pieces follows the printed name; not shown: glutathione-S-transferase tag of the pET42b vector
T1 sequence: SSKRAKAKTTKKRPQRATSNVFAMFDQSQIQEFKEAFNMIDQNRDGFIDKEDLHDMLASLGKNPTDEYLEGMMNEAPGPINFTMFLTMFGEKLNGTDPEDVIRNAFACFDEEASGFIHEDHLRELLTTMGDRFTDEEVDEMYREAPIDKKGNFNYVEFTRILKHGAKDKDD

T2: human Myl9-His (human, UniProt P24844 2-172, limits assumed)
T2 construct: Made in E. coli; the GST tag was cleaved with PreScission Protease
T2 sequence: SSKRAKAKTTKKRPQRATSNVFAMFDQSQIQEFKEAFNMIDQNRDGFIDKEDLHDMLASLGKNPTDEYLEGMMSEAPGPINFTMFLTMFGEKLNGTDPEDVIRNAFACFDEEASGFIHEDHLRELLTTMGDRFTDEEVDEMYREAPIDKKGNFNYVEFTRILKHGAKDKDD

T3: human Myl12b-His (human, UniProt O14950 1-172)
T3 construct: Made in E. coli; GST tag cleaved with PreScission Protease; DTT-treated monomer
T3 sequence: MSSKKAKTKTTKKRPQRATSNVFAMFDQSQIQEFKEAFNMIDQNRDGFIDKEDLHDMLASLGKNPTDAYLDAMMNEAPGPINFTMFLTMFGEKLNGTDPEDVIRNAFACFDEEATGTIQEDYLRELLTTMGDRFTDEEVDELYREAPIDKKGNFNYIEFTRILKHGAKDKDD

T4: human Myl12a-His (human, UniProt P19105 1-171)
T4 construct: Made in E. coli; GST tag cleaved with PreScission Protease; DTT-treated monomer
T4 sequence: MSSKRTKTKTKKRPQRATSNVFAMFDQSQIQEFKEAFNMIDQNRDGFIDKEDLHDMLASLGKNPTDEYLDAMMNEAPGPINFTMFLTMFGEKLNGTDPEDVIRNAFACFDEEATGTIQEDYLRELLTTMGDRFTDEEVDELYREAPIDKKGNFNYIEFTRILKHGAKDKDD


Experiments:
[1] = target: T1, glutathione-S-transferase …; test: ELISA, GST-His-mouse Myl9 coated, anti-Flag-HRP
Procedure: Next, ELISA was performed in order to analyze the presence or absence of association between mouse Myl9 and mouse CD69 (FIGS. 3A and 3B). Specifically, GST-His-mouse Myl3 protein and GST-His-mouse Myl9 protein were added at a concentration of 5 μg/mL, and this was incubated overnight at 4° C. to immobilize them onan ELISA plate. On the next day, Block Ace (Sumitomo Dainippon Pharma Co., Ltd.) was employed to allow blocking at […] temperature for one hour, and then this was washed three times with a wash buffer (50 mM HEPES (pH 6.5), 150 mM NaCl, and 0.02% Tween 20). Different concentration of 3× Flag mouse CD69 EC protein was added to each well, and this was reacted at room temperature for one and a half hours. In FIG. 3B, 3× Flag mouse CD69 EC protein in which the N-linked sugar chain was cleaved with PNGase F (NEB) was employed. The cleaving treatment of the N-linked sugar chain was performed by employing 1,000 U of PNGase F for 4 μg of 3× Flag mouse CD69 EC protein. After washing three times with the wash buffer, HRP-labeled anti-Flag (M2) antibody (Sigma) was added, this was reacted at room temperature for one hour, and then washed five times with the wash buffer. TMB solution (BIO-RAD) was used as the coloring substrate, and the reaction was quenched with 1N H₂SO₄. SpectraMAX Paradigm (Molecular Device) was employed to measure the value at 450 nm.

human Myl9-His = target: T2, human Myl9-His; test: ELISA, human Myl9-His coated, anti-human IgG-HRP
Procedure: The binding ability against human Myl9 was evaluated following the steps below by ELISA. Human Myl3-His and human Myl9-His were coated onto the wells of a 96-well plate (Nunc). After an overnight incubation at 4° C., the wells were blocked at room temperature for one hour with 1× Block Ace (DS Pharma Biomedical Co., Ltd.). After washing three times with 0.02% Tween 20/PBS, seven serial dilutions by six folds of the chimeric and humanized antibodies were made from a concentration of 10 μg/mL and added to the wells. After incubation at room temperature for one hour and washing three times, horseradish peroxidase-labeled anti-human IgG antibody (Jackson ImmunoResearch Laboratories) was added, and this was incubated at room temperature for one hour. After washing 5 times, TMBZ (3,3′,5,5′-tetramethylbenzidine) solution was added to the wells, and this was incubated for 5-20 minutes at room temperature. An equal amount of reaction quenching solution (2N H₂SO₄) was added to the wells, and absorbance at 450 nm was read with a microplate reader (PerkinElmer).

human Myl12b-His = target: T3, human Myl12b-His; test: ELISA, human Myl12b-His coated, anti-human IgG-HRP
Procedure: (§1) The binding ability of chimeric and humanized antibodies prepared from Antibody A against human Myl12a and Myl12b was evaluated following the steps below by ELISA. Human Myl3-His, human Myl9-His, human Myl12a-His and human Myl12b-His were coated onto the wells of a 96-well plate (Nunc), respectively. After an overnight incubation at 4° C., the wells were blocked at room temperature for one hour with 1× Block Ace (DS Pharma Biomedical Co., Ltd.). After washing three times with 0.02% Tween 20/PBS, the chimeric and humanized antibodies were diluted at the concentration of 0.01, 0.1 and 1 μg/mL, respectively and added to the wells. After incubation at room temperature for one hour and washing three times, horseradish peroxidase-labeled anti-human IgG antibody (Jackson ImmunoResearch Laboratories) was added, and this was incubated at room temperature for one hour. After washing 5 times, TMBZ (3,3′,5,5′-tetramethylbenzidine) solution was added to the wells, and this was incubated for 5-20 minutes at room temperature. An equal amount of reaction quenching solution (2N H₂SO₄) was added to the wells, and absorbance at 450 nm was read with a microplate reader (Thermo Scientific).

human Myl12a-His = target: T4, human Myl12a-His; test: ELISA, human Myl12a-His coated, anti-human IgG-HRP
Procedure: as §1

human Myl3-His = target: T5, human Myl3-His (human, UniProt P08590 2-195, limits assumed); test: ELISA at 0.01, 0.1 and 1 µg/mL, human Myl3-His coated, anti-human IgG-HRP
T5 construct: Made in E. coli; the GST tag was cleaved with PreScission Protease
T5 sequence (P08590 2-195 limits assumed): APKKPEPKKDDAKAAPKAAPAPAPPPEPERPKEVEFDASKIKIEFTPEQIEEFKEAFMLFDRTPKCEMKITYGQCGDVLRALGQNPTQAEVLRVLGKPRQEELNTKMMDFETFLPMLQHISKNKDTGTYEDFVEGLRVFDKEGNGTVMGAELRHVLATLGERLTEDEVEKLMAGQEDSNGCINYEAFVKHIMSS
Procedure: as §1

binding result [1]	binding result (human Myl9-His)	binding result (human Myl12b-His)	binding result (human Myl12a-His)	binding result (human Myl3-His)	Binder
–	binds	binds	binds	no binding (tested: 1 µg/mL)	Humanized antibody No. 116 (antibody, human IgG2, kappa, V domains shown, human IgG2 (V234A, G237A, C-terminal Lys deleted) / kappa; Expi293F, Protein A purified; also called HK2-5/L1-5) VH: QVQLVQSGAEVKKPGASVKVSCKASGYTFTDYEMHWVRQAPGQGLEWMGAIDPETGGTAYNQKFKGRVTMTADTSTSTAYMELSSLRSEDTAVYYCADYDYDGFAYWGQGTLVTVSS VL: DIVMTQSPLSLSITPGEQASISCRSSQSLVHSNGNTYLHWYLQKPGQSPQLLISKVSNRFSGVPDRFSGSGSGTDFTLKISRVEAEDVGVYFCSQNTHVPPLTFGGGTKVEIKR
–	binds	binds	binds	no binding (tested: 1 µg/mL)	Humanized antibody No. 114 (antibody, human IgG2, kappa, V domains shown, human IgG2 (V234A, G237A, C-terminal Lys deleted) / kappa; Expi293F, Protein A purified; also called HK1-4/L1-5) VH: QVQLVQSGAEVKKPGSSVKVSCKASGGTFSDYEMHWVRQAPGQGLEWMGAIDPETGGTAYNQKFKGRATITADKSTSTAYMELRSLRSEDTAVYYCADYDYDGFAYWGQGTLVTVSS VL: DIVMTQSPLSLSITPGEQASISCRSSQSLVHSNGNTYLHWYLQKPGQSPQLLISKVSNRFSGVPDRFSGSGSGTDFTLKISRVEAEDVGVYFCSQNTHVPPLTFGGGTKVEIKR
–	binds	binds	binds	no binding (tested: 1 µg/mL)	Humanized antibody No. 111 (antibody, human IgG2, kappa, V domains shown, human IgG2 (V234A, G237A, C-terminal Lys deleted) / kappa; Expi293F, Protein A purified; also called HA1-4/L1-5) VH: QVQLVQSGAEVKKPGSSVKVSCKASGYTFTDYEMHWVRQAPGQGLEWMGAIDPETGGTAYAQKFQGRATITADKSTSTAYMELRSLRSEDTAVYYCADYDYDGFAYWGQGTLVTVSS VL: DIVMTQSPLSLSITPGEQASISCRSSQSLVHSNGNTYLHWYLQKPGQSPQLLISKVSNRFSGVPDRFSGSGSGTDFTLKISRVEAEDVGVYFCSQNTHVPPLTFGGGTKVEIKR

More lines, now with the values behind:

Binder	binding result [1]	binding result (human Myl9-His)	binding result (human Myl12b-His)	binding result (human Myl12a-His)	binding result (human Myl3-His)
3× Flag-mouse CD69 EC (with sugar chain) (receptor, not shown: small tags and cut ends, N-linked sugar chains present (made in Expi293F cells, not PNGase F treated), Secreted from Expi293F cells and purified on Anti-Flag M2 gel; also called 3× Flag mouse CD69 EC protein; mouse CD69 extracellular region protein) NVGKYNCPGLYEKLESSDHHVATCKNEWISYKRTCYFFSTTTKSWALAQRSCSEDAATLAVIDSEKDMTFLKRYSGELEHWIGLKNEANQTWKWANGKEFNSWFNLTGSGRCVSVNHKNVTAVDCEANFHWVCSKPSR	binds	–	–	–	–
PNGase F-treated 3× Flag-mouse CD69 EC (without sugar chain) (receptor, not shown: small tags and cut ends, N-linked sugar chain cleaved with PNGase F, also called 3× Flag-mouse CD69 EC subjected to sugar chain cleaving treatment; mouse CD69 extracellular region protein) NVGKYNCPGLYEKLESSDHHVATCKNEWISYKRTCYFFSTTTKSWALAQRSCSEDAATLAVIDSEKDMTFLKRYSGELEHWIGLKNEANQTWKWANGKEFNSWFNLTGSGRCVSVNHKNVTAVDCEANFHWVCSKPSR	binds	–	–	–	–
Humanized antibody No. 113 (antibody, human IgG2, kappa, V domains shown, human IgG2 (V234A, G237A, C-terminal Lys deleted) / kappa; Expi293F, Protein A purified; also called HK1-6/L1-5) VH: QVQLVQSGAEVKKPGSSVKVSCKASGGTFSDYEMHWVRQAPGQGLEWMGAIDPETGGTAYNQKFKGRVTITADKSTSTAYMELRSLRSEDTAVYYCADYDYDGFAYWGQGTLVTVSS VL: DIVMTQSPLSLSITPGEQASISCRSSQSLVHSNGNTYLHWYLQKPGQSPQLLISKVSNRFSGVPDRFSGSGSGTDFTLKISRVEAEDVGVYFCSQNTHVPPLTFGGGTKVEIKR	–	binds	binds	binds	no binding (tested: 1 µg/mL)
Humanized antibody No. 115 (antibody, human IgG2, kappa, V domains shown, human IgG2 (V234A, G237A, C-terminal Lys deleted) / kappa; Expi293F, Protein A purified; also called HK1-A/L1-5) VH: QVQLVQSGAEVKKPGSSVKVSCKASGYTFSDYEMHWVRQAPGQGLEWIGAIDPETGGTAYNQKFKGRATITADKSTSTAYMELRSLRSEDTAVYYCTDYDYDGFAYWGQGTLVTVSS VL: DIVMTQSPLSLSITPGEQASISCRSSQSLVHSNGNTYLHWYLQKPGQSPQLLISKVSNRFSGVPDRFSGSGSGTDFTLKISRVEAEDVGVYFCSQNTHVPPLTFGGGTKVEIKR	–	binds	binds	binds	no binding (tested: 1 µg/mL)
Humanized antibody No. 112 (antibody, human IgG2, kappa, V domains shown, human IgG2 (V234A, G237A, C-terminal Lys deleted) / kappa; Expi293F, Protein A purified; also called HK1-5/L1-5) VH: QVQLVQSGAEVKKPGSSVKVSCKASGGTFSDYEMHWVRQAPGQGLEWMGAIDPETGGTAYNQKFKGRVTITADKSTSTAYMELSSLRSEDTAVYYCADYDYDGFAYWGQGTLVTVSS VL: DIVMTQSPLSLSITPGEQASISCRSSQSLVHSNGNTYLHWYLQKPGQSPQLLISKVSNRFSGVPDRFSGSGSGTDFTLKISRVEAEDVGVYFCSQNTHVPPLTFGGGTKVEIKR	–	binds	binds	binds	no binding (tested: 1 µg/mL)
Humanized antibody No. 110 (antibody, human IgG2, kappa, V domains shown, human IgG2 (V234A, G237A, C-terminal Lys deleted) / kappa; Expi293F, Protein A purified; also called HA1-6/L1-5) VH: QVQLVQSGAEVKKPGSSVKVSCKASGYTFTDYEMHWVRQAPGQGLEWMGAIDPETGGTAYAQKFQGRVTITADKSTSTAYMELRSLRSEDTAVYYCADYDYDGFAYWGQGTLVTVSS VL: DIVMTQSPLSLSITPGEQASISCRSSQSLVHSNGNTYLHWYLQKPGQSPQLLISKVSNRFSGVPDRFSGSGSGTDFTLKISRVEAEDVGVYFCSQNTHVPPLTFGGGTKVEIKR	–	binds	binds	binds	no binding (tested: 1 µg/mL)
